In the assay the target is T1, colicin E3 (Escherichia coli) (UniProt P00646).
T1 sequence: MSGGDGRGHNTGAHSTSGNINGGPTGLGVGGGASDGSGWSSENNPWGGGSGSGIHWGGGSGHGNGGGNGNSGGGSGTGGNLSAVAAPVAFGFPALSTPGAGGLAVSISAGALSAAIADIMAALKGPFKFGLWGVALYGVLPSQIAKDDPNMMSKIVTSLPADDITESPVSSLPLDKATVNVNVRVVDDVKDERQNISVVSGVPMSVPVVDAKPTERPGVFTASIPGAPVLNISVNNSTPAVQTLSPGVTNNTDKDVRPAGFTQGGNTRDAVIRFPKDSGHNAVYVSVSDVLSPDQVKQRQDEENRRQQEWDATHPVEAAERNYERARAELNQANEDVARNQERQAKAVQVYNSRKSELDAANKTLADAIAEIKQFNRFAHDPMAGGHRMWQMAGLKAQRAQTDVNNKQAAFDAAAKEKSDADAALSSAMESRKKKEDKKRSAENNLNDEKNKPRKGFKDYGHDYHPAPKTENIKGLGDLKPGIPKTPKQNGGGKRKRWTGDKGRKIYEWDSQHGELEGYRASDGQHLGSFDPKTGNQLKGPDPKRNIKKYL

B1: E3 immunity protein, co-expressed with colicin E3 in CFPS (natural protein)
chain: MGLKLDLTWFDKSTEDFKGEEYSKDFGDDGSVMESLGVPFKDNVNNGCFDVIAEWVPLLQPYFNHQIDISDNEYFVSFDYRDGDW
Take B1: the effective multiplicity m = -ln(S/S0) of cell killing of K361 indicator cells by 250 ng/mL colicin E3 co-expressed with the immunity protein worked out at 13.5.

Values taken from paper PMC6632115.
